Measured values published in the nanobody polyreactivity screen of Harvey et al. (2022).

Assay: yeast display, Sf9 membrane polyspecificity reagent, FACS + sequencing; frameworks hold sequencing errors
How it was run: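 Polyreactivity labels are assigned by the sorting gate from which each nanobody was recovered. The gates were low and high (top ~1%), set on anti-HA fluorescence for expression and streptavidin fluorescence for reagent binding. Before sorting, galactose-induced (36–48 hours) yeast display cells were stained for 1 hour at 4 °C with 10% biotinylated, detergent-solubilized Sf9 membrane reagent.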

Sequence | polyreactivity (PSR sort gate)
QVQLVESGGGLGQAGGSLRLSCAASGSIFAVNAMGWYRPAPGKERELVAGINSSGGSTHYADSVKGRFTISRDNAKNTVYFQMNSLKPEDTAVYYCAADWLRPAYYAVASLVKSDYWGQGTQVTVSS | low polyreactivity
QVQLVESGGGLVQAGGSLRLSCAASGIIFDRYAMGWYRQAPGKERELVAAITYGGGSTYYADSVKGRFTISRDNAKNTVYLQMNSLKTEDTAVYYCAAVPRSGMYYWGQGTQVTVSS | high polyreactivity
QVHLVESGGGLVQAGGRLRLSCAASGFTYYRYTMGWYRQAPGKERELVAAISWNGGRTYYADSVKGRFTISRDNAKNTVYLQMNSLKPEDTAVYYCAAVQHYTNRYPAVDYWGQGTQVTVSS | high polyreactivity
QVHLVESGGGLVQAGGSLRLSCAASGRIFGVNAMGWYRQAPGKERELVAAITWSGGSTYYADSVKGRFTISRDNAKITVYLEMNSLKPEDTAVYYCAVEGQFDDGWAWYDYWGQGTQVTVSS | high polyreactivity
QVQLVASGGGLVQAGGSLRLTCAASGITSWYYAMGWYRQAPGKERELVAAITSDGSTYYADSVKGRFTISRDNAKNTVYLQMNSLNPEDTAVYYCAAERDYWIPDSYLVVMDYWGQGTQVTVSS | low polyreactivity
QVQLVESGGGLVQAGGSLRLSCAASGFISARYAMGWYRQAPGKERELVAGISGGGGRTYYADSVKGRFTISRDNAKNTVYLQMNSLKPEDTAVFYCAATLQSRDRRFNYWGQGTQVTVSS | high polyreactivity
QVQLVESGGGLVQAGGSLRLSCAASGRTFVVYAMGWYRQAPGKERELVAVIRVIGGSTNYADSVKGRFTISRDNAKNTVYLQMNSLKPEDTAVYYCAADGVVVVAADMYYWGQGTQVTVSS | low polyreactivity
QVQLVESGGGLVQAGGSLRLSCAASGSTFDYNTMGWYRQAPGKERELVAVITYSGGRTYYADSVKGRFTISRDNAKNTVYLQMNSLKPEDTAVYYCNARYGYPLGHSIYYYWGQGTQVTVSS | low polyreactivity
QVQLVESGGGLVQAGGSLRLSCAASGTTFGRNAMGWYRQAPGKERELVAAINSGGGTYYADSVKGRFTISRDNAKNTVYFQMNSLKPEDTAVYYCAAARRYGNYDYWGQGTQVTVSS | low polyreactivity
QVQLVESGGCLVQAGVSLRLSCAASGSIFSPYAMGWYRQAPGKEREFVASITFNGGSTYYADSVKGRFTISRDNAKNTVYLQMNSLKPEDTAVYYCAASYWYDTYWLMDYWGQGPQVTVSS | high polyreactivity
QVQLVESGGGLDQAGGSLRLSCADSGSIFVYYAMGWYRQAPGKERELVAAITTSGGSTYYADSVKGRFTISRDNAKNTVYLQMNSLKPEDTAVYYCAAELLAWYWSYSVPWPYDYWGQGTQVTVSS | low polyreactivity
QVQLVESGGGLVQAGGSLLLSSAPTGITFEGYSMGWSRQAPGKERELVAAIRSSGTSTYYADSVKGRFTISRDNAKNTVYLQMNSLKPDDTAVYYCNRARSSSRYDYWGQGTQVTVSS | low polyreactivity
QVQLVESGGGLVQAGGSLRLSCAASGRIFPAYVMGWYRQSPGKERELVATIDNGGGTYYADSVKGRFTISRDNAKNTVYLQMNSLKPEDTAVYYCARDRHVRWGLKMDYWGQGTQVTVSS | low polyreactivity
QVQLVESGGGLVQAGGSLRLSCAASGRIFGYYAMGWYRQAPGKERELVAAISYIGGRTYYADSVKGRFTISRDNAKNTGYLQMNSLKPEDTAVYYCDADRDGADVDYWGQGTQVTVSS | high polyreactivity
QVQLVESAGGLVQAGGSLRLSCAASGSIIADNAMGWDRQSPGTERELVAAITGGDSTYYADSVKGRFTISRDNAKNTVYLQMNSLKPEDTAVYYCNADRFRGRTVDGDYWGQGTQVTVSS | low polyreactivity
QVQLVESGGGLVQAGGSLRLSCAASGFIFRGNARGWYRQAPGKERELVAAISVRGGRTYYADSVKGRFTISRDNAKNTVYLQMNSLKPEDTAVYDCAADLYNRGRGSSQSYRTGYDYWGQGTQVTVSS | high polyreactivity

Sequence | polyreactivity (PSR sort gate)
QVQLVESGGGLVQAGGSLRLSCAASGGIFSYNALGWYRQAPGKERELVAAISYSSTRTYYADSVKGRFTISRDNAKKTVYLQMNSLKREDTAVYYCAARLSRTRHTSDYWGQGTQVTVSS | high polyreactivity
QVQLVESGGGLVQAGGSLRLSCAASGFIFIYNAMGWYRQAPGKERELVASITSGGGSTYYADSVKGRFTISRDNAKNTVYLQMNSLKPEDTAVYYCAKQDAVQGAEASGEYDYWGQGTQVTVSS | low polyreactivity
QVHLVESGGGLVQAGGSLRLSSAASGRTFRGNAMGWYRQPPGKEREFDAVISGSGGSTYYADSVKGRFTISRDNAKNTVYLQMNSLKPEDTAVYYCGDKPSRWQRYDYWGQGTQVTVSS | high polyreactivity
QVQLVESGGGLVQAGGSLRLSCAASGRIFRYYVLGWYRQAPGKERELVATINWSGSRTYYADSVKGRFTISRDNAKNTVYLQMNSLKPEDTAVYYCAARTFNTYPRYYYWGQGTQVTVSS | high polyreactivity
QVQLVESGGGLVQAGGSLRISCAASGSTYYTNTMGWYRQAPGKERELVADINGSGGSTYYADSVKGRITISRDNAKNTVYLQMNSLKPEDTAVYYCAAGSLQVAIRYDYWGQGTQVTVSS | low polyreactivity
QVQLVESGGGLVQAGGSLRLSCAASGFIFKRYAMGWYRQAPGKERELVAVITRSGGSTYYADSVKGRFTISRDNAKNTVYLQMNSLKPEDTAVYYCAVDFTDRGYDYWGQGTQVTVSS | high polyreactivity
QVQLVESGGGLVQAGGSLRLSCAASGFTFAVNVMGWYIHAPGKEREFDAAISWTGGSTDYADSVKGRFTISLDNAKNTVYLQMNSLKPEDTAVYYCAADYNLRLQPFRKLVGPAGGYWGQGTQLTVSS | low polyreactivity
QVQLVESGGGLVQAGGSLRLSCAASGLIFFYLNDMGWYRQAPGKERELVATITSGTSTTYADSVKGRFTISRDNAKNTVYLQMNSLKPEDTAVYYCNATDVGIITVGYGHGGYYWGQGTQVTVSS | low polyreactivity
QVQLVESGGGLVQAGGSLRLSCAASGFIFGPYAMGWYRQAPGKERELVAASWRGGSTYYADSVKGRFTISRDNAKNTVYLQMNSLKPEDTAVYYCAADVFYSLYYYWGQGTQVTVSS | low polyreactivity
QVQLVESVGGLVQEGGTLRLSCAASGSTFEVYTMGWYRQAPGKERELVAAITKNGGTTYYADSVKGRFTISRDNAKNTVYLQMNSLKPEDTAVYYCAVYYYSGYYYWDYYWGQGTQVTVSS | low polyreactivity
QVQLVESGGGLVQAGGSLRLSCAASGRIFGIYAMGWYRQAPGKERELVAAISYSGGSTYYADSVKGRFTISRDNAKNTVYLQMNSLNPEDTAVYYCNADYYASYYPYYSIRLDYWGQGTQVTVSS | low polyreactivity
QVQLVESGGGLVQAGGSLRLSCAASGRIFNIYAMGWYRQAPGKERELVAAIRWNGGSTYYADSVKGRFTISRDNAKYTVYLQMYSLKPEDSAVYYCAAARRRRFYDYYNAWYDVDYWGQGTQVSVSS | low polyreactivity
QVQLVESGGGLVQAGGSLRFSCAASGSTFVRYPMGWYRQAPGKERELVAAITRSGGRTYYADSVKGRFTISRDNAKNTVYLQMNSLKPEDTAVYYCAADVSHVQGYDYWGQGTQVTVSS | high polyreactivity
QVQLVESGGGLVQAGGSLRLSCAASGSTFHLYAMGWNRQAPGKERQFVAAIRGRGGNTYADSVKGRFTISRDNAKNTVYLQMNSLKPEDTAVYYCAAPLLRDLRSPYSYNYWGQGSQVTVSS | low polyreactivity
QVQLVESGGGLVQAGGSLRLSSAASGSIFWPNTMGWYRPAPGKERELVAGISFGGGSTYYADSVKGRFTISRDNAKNTVYLQMNRLKPEDTAVYYCNGDDPGYAGPWYWFKYDYWGQGTQVTVSS | low polyreactivity
